From paper PMC9482650, “Quantitative fragmentomics allow affinity mapping of interactomes” (Nature Communications, 2022)
Values belong to the binder of their own block, whether it stands above or below them.

Key:
Assay in all cases: holdup assay
Parameters in all cases: key: below the threshold = too weak to quantify, mostly under pKd 3.1 to 4
TJP2_1, Q9UDY2 = biological target: TJP2_1, Q9UDY2
MPP2, Q14168 = biological target: T1, MPP2, Q14168
T1 sequence (Q14168 180-250, limits assumed, looked up): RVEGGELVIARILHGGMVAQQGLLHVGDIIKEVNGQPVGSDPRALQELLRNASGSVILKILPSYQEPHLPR

PARD3B_1, Q8TEW8 = biological target: T2, PARD3B_1, Q8TEW8
T2 sequence (Q8TEW8 196-299, limits assumed, looked up): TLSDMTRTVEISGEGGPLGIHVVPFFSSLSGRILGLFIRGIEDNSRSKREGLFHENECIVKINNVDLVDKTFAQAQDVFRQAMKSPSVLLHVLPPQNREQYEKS

PDLIM1, O00151 = biological target: PDLIM1, O00151
PDLIM1, O00151, sequence (O00151 1-87): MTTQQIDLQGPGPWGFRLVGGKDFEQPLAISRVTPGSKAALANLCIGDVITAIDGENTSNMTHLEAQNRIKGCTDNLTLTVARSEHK

NHERF3_3, Q5T2W1 = biological target: T3, NHERF3_3, Q5T2W1
T3 sequence (Q5T2W1 238-333, limits assumed, looked up): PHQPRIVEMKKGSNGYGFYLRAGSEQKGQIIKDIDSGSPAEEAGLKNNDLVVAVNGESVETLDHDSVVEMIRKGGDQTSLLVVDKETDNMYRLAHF

CARD11, Q9BXL7 = biological target: T4, CARD11, Q9BXL7
T4 sequence (Q9BXL7 662-765, limits assumed, looked up): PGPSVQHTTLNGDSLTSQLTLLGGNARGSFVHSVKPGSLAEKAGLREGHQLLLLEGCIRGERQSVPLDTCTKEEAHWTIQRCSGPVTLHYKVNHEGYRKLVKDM

GORASP2, Q9H8Y8 = biological target: GORASP2, Q9H8Y8
LDB3, O75112 = biological target: LDB3, O75112
LDB3, O75112, sequence (O75112 1-94): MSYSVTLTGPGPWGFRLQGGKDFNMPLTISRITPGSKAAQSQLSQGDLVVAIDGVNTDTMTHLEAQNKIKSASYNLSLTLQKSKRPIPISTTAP

SCRIB_3, Q14160 = biological target: SCRIB_3, Q14160
SCRIB_3, Q14160, sequence (Q14160 999-1103): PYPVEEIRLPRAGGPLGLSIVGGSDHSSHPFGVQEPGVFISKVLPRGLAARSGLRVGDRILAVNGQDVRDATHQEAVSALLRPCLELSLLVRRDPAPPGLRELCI

GRIP2_4, Q9C0E4 = biological target: GRIP2_4, Q9C0E4
GRIP2_4, Q9C0E4, sequence (Q9C0E4 446-548): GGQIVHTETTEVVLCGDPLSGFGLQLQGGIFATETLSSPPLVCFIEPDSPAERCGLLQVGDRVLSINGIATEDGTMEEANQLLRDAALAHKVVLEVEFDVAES

NHERF3_4, Q5T2W1 = biological target: T5, NHERF3_4, Q5T2W1
T5 sequence (Q5T2W1 373-468, limits assumed, looked up): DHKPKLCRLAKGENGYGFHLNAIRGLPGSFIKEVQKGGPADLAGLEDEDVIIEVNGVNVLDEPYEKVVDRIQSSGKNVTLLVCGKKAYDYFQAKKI

NHERF4_4, Q86UT5 = biological target: NHERF4_4, Q86UT5
NHERF4_4, Q86UT5, sequence (Q86UT5 464-550): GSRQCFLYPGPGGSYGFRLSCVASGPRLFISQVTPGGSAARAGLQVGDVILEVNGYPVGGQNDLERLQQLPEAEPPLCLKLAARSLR

LNX1_2, Q8TBB1 = biological target: LNX1_2, Q8TBB1
LNX1_2, Q8TBB1, sequence (Q8TBB1 371-470): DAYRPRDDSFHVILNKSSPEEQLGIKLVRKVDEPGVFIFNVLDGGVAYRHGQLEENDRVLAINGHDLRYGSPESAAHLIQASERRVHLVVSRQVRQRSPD

HTRA4, P83105 = biological target: T6, HTRA4, P83105
T6 sequence (P83105 378-476, limits assumed, looked up): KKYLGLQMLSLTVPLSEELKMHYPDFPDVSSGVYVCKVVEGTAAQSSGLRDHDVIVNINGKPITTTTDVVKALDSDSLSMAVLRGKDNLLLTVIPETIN

PDZD7_3, Q9H5P4 = biological target: T7, PDZD7_3, Q9H5P4
T7 sequence (Q9H5P4 857-944, limits assumed, looked up): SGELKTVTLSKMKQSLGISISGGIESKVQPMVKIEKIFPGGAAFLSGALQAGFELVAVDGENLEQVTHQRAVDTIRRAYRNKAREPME

SHANK1, Q9Y566 = biological target: T8, SHANK1, Q9Y566
T8 sequence (Q9Y566 658-767, limits assumed, looked up): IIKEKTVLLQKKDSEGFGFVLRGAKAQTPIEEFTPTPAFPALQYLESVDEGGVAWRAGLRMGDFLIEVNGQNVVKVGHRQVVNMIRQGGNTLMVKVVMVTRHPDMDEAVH

FRMPD1, Q5SYB0 = biological target: T9, FRMPD1, Q5SYB0
T9 sequence (Q5SYB0 52-145, limits assumed, looked up): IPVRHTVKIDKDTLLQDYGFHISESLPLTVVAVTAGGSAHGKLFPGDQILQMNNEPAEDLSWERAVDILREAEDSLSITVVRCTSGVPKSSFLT

DLG1_3, Q12959 = biological target: DLG1_3, Q12959
DLG1_3, Q12959, sequence (Q12959 457-571): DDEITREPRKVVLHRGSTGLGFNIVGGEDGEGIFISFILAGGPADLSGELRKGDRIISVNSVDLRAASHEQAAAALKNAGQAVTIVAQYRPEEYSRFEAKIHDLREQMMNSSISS

GOPC, Q9HD26 = biological target: GOPC, Q9HD26
AHNAK1, Q09666 = biological target: AHNAK1, Q09666
AHNAK1, Q09666, sequence (Q09666 4-100): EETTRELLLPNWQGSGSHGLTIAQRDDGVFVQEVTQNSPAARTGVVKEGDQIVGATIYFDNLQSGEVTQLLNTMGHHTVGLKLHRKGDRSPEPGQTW

GRIP1_4, Q9Y3R0 = biological target: T10, GRIP1_4, Q9Y3R0
T10 sequence (Q9Y3R0 467-571, limits assumed, looked up): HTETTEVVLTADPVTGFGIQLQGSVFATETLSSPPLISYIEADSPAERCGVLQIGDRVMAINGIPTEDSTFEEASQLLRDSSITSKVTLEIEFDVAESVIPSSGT

DVL3, Q92997 = biological target: T11, DVL3, Q92997
T11 sequence (Q92997 244-331, limits assumed, looked up): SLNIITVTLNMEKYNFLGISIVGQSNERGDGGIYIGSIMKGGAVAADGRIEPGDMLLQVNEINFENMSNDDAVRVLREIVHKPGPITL

LIN7B, Q9HAP6 = biological target: T12, LIN7B, Q9HAP6
T12 sequence (Q9HAP6 88-185, limits assumed, looked up): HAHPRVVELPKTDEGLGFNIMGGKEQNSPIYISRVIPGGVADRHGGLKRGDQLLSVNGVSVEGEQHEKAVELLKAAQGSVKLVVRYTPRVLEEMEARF

APBA1_2, Q02410 = biological target: T13, APBA1_2, Q02410
T13 sequence (Q02410 742-832, limits assumed, looked up): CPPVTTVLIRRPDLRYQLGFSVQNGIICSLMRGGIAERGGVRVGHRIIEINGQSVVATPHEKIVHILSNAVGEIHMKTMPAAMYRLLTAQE

[1] = plain residues with an end cap or a label only (N-terminal biotin on a linker: ado-ado)
[2] = plain residues with an end cap or a label only (N-terminal biotin on a linker: ahx)
[3] = plain residues with an end cap or a label only (N-terminal biotin on a linker: ttds)

TJP2_1, Q9UDY2, sequence (Q9UDY2 24-128): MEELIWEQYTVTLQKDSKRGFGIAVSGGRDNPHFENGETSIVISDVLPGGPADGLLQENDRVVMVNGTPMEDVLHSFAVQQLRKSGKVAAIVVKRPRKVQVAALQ

pKd (TJP2_1, Q9UDY2; [1]): below the threshold
pKd (MPP2, Q14168; [1]): below the threshold
pKd (PARD3B_1, Q8TEW8; [1]): below the threshold
pKd (PDLIM1, O00151; [1]): below the threshold
pKd (NHERF3_3, Q5T2W1; [1]): below the threshold
pKd (CARD11, Q9BXL7; [1]): below the threshold
pKd (GORASP2, Q9H8Y8; [1]): below the threshold
pKd (LDB3, O75112; [1]): below the threshold
pKd (SCRIB_3, Q14160; [1]): below the threshold
pKd (GRIP2_4, Q9C0E4; [1]): below the threshold
pKd (NHERF3_4, Q5T2W1; [1]): below the threshold
pKd (NHERF4_4, Q86UT5; [1]): below the threshold
pKd (LNX1_2, Q8TBB1; [1]): below the threshold
pKd (HTRA4, P83105; [1]): below the threshold
pKd (PDZD7_3, Q9H5P4; [1]): below the threshold
pKd (SHANK1, Q9Y566; [1]): below the threshold
pKd (FRMPD1, Q5SYB0; [1]): below the threshold
pKd (DLG1_3, Q12959; [1]): below the threshold
pKd (GOPC, Q9HD26; [1]): below the threshold
pKd (AHNAK1, Q09666; [1]): below the threshold
pKd (GRIP1_4, Q9Y3R0; [1]): below the threshold
pKd (DVL3, Q92997; [1]): below the threshold
pKd (LIN7B, Q9HAP6; [1]): below the threshold
pKd (APBA1_2, Q02410; [1]): below the threshold
Binder: DAAHHDESNC [FMNL3, Q8IVF7]

pKd (TJP2_1, Q9UDY2; [2]): below the threshold
pKd (MPP2, Q14168; [2]): below the threshold
pKd (PARD3B_1, Q8TEW8; [2]): 4.52
pKd (PDLIM1, O00151; [2]): below the threshold
pKd (NHERF3_3, Q5T2W1; [2]): below the threshold
pKd (CARD11, Q9BXL7; [2]): below the threshold
pKd (GORASP2, Q9H8Y8; [2]): 3.57
pKd (LDB3, O75112; [2]): below the threshold
pKd (SCRIB_3, Q14160; [2]): 3.61
pKd (GRIP2_4, Q9C0E4; [2]): below the threshold
pKd (NHERF3_4, Q5T2W1; [2]): 3.8
pKd (NHERF4_4, Q86UT5; [2]): below the threshold
pKd (LNX1_2, Q8TBB1; [2]): below the threshold
pKd (HTRA4, P83105; [2]): below the threshold
pKd (PDZD7_3, Q9H5P4; [2]): 3.64
pKd (SHANK1, Q9Y566; [2]): 5.25
pKd (FRMPD1, Q5SYB0; [2]): below the threshold
pKd (DLG1_3, Q12959; [2]): below the threshold
pKd (GOPC, Q9HD26; [2]): below the threshold
pKd (AHNAK1, Q09666; [2]): below the threshold
pKd (GRIP1_4, Q9Y3R0; [2]): below the threshold
pKd (DVL3, Q92997; [2]): 3.62
pKd (LIN7B, Q9HAP6; [2]): below the threshold
pKd (APBA1_2, Q02410; [2]): below the threshold
Binder: KEYDDELTFF [USH1C, Q9Y6N9]

pKd (TJP2_1, Q9UDY2; [3]): below the threshold
pKd (MPP2, Q14168; [3]): below the threshold
pKd (PARD3B_1, Q8TEW8; [3]): 3.8
pKd (PDLIM1, O00151; [3]): below the threshold
pKd (NHERF3_3, Q5T2W1; [3]): below the threshold
pKd (CARD11, Q9BXL7; [3]): below the threshold
pKd (GORASP2, Q9H8Y8; [3]): 3.81
pKd (LDB3, O75112; [3]): below the threshold
pKd (SCRIB_3, Q14160; [3]): 3.49
pKd (GRIP2_4, Q9C0E4; [3]): below the threshold
pKd (NHERF3_4, Q5T2W1; [3]): below the threshold
pKd (NHERF4_4, Q86UT5; [3]): below the threshold
pKd (LNX1_2, Q8TBB1; [3]): below the threshold
pKd (HTRA4, P83105; [3]): below the threshold
pKd (PDZD7_3, Q9H5P4; [3]): below the threshold
pKd (SHANK1, Q9Y566; [3]): below the threshold
pKd (FRMPD1, Q5SYB0; [3]): below the threshold
pKd (DLG1_3, Q12959; [3]): 3.81
pKd (GOPC, Q9HD26; [3]): below the threshold
pKd (AHNAK1, Q09666; [3]): below the threshold
pKd (GRIP1_4, Q9Y3R0; [3]): below the threshold
pKd (DVL3, Q92997; [3]): 3.6
pKd (LIN7B, Q9HAP6; [3]): below the threshold
pKd (APBA1_2, Q02410; [3]): 3.83
Binder: PFRSRSPSEV [GPR6, P46095]
